Substrate in the data set: Cc1cc(=O)oc2c(F)c(OP(=O)(O)O)c(F)cc12
The data set is described as follows: enzyme kinetics, fluorescence of DiFMU product; KM. The format is biochemical, Homo sapiens. The conditions noted are these: Mn2+ ([…] MnCl2 in buffer).

The values that follow come from article PMC8775935, “Chebulinic Acid Suppresses Adipogenesis in 3T3-L1 Preadipocytes by Inhibiting PPP1CB Activity” (International Journal of Molecular Sciences, 2022).

B1: protein phosphatase-1 catalytic subunit beta (PPP1CB) (Homo sapiens) (protein)
chain: MADGELNVDSLITRLLEVRGCRPGKIVQMTEAEVRGLCIKSREIFLSQPILLELEAPLKICGDIHGQYTDLLRLFEYGGFPPEANYLFLGDYVDRGKQSLETICLLLAYKIKYPENFFLLRGNHECASINRIYGFYDECKRRFNIKLWKTFTDCFNCLPIAAIVDEKIFCCHGGLSPDLQSMEQIRRIMRPTDVPDTGLLCDLLWSDPDKDVQGWGENDRGVSFTFGADVVSKFLNRHDLDLICRAHQVVEDGYEFFAKRQLVTLF
A word on the Km: it is the concentration of substrate that gives half-maximal velocity. For orientation: Vmax means the top rate of the reaction or transport when substrate is in excess. The term kcat denotes the number of substrate molecules converted per active site and unit of time at saturation. By kcat/Km is commonly meant the turnover number divided by the Michaelis constant. As for B1, the Km was 186.2 µM, the maximal velocity (Vmax) was 3.4 µM/min, the kcat came out at 38.3 s⁻¹ and the kcat/Km was determined as 210000 M⁻¹ s⁻¹.
